Experimental data reported in patent USRE42211, “Relating to binding proteins for recognition of DNA” (Gendaq, Limited).

Molecular target: anti-BCR-ABL three-finger peptide 1A-2A-3B (synthetic)
Assay: phage ELISA after capture on streptavidin beads; +/-0.4e-7 M; Zn, PBS, 20 C
Settings: source form inferred; label: 5'-biotin

anti-BCR-ABL three-finger peptide 1A-2A-3B (synthetic), sequence (chain, as listed by the source): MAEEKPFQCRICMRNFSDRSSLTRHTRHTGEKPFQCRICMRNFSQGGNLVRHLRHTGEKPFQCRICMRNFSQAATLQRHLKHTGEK

B1: p190 BCR-ABL cDNA fusion site oligo (dsDNA)
DNA 1: GAGACGCAGAAGCCCTTC
DNA 2: GAAGGGCTTCTGCGTCTC
- Kd: 620 nM
